Assay [1] deals with T1, recombinant human CTLA4 extracellular domain (human, UniProt P16410 36-161).
T1 construct: extracellular domain; also called huCTLA-4
T1 sequence (looked up): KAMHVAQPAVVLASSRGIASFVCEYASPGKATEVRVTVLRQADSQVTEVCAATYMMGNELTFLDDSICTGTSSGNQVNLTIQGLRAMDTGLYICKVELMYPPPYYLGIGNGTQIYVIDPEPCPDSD
In words: ELISA, immobilised huCTLA-4, table head pH 7.0 (text: pH 7.4), Jul. 11, 2017. On the technique in general: ELISA stands for enzyme-linked immunosorbent assay.

Assay [2] concerns the target T1, recombinant human CTLA4 extracellular …. Briefly: ELISA, wells coated with human CTLA4, assay pH 7.4; lot 6972 in His buffer, T0; unit from the axis Log[ng/mL]. Here is the method: (§1) Both ELISA and FACS analysis were used to measure the binding activity. […] The amount of bound antibodies was quantified using anti-human IgG antibody conjugated to HRP. The absorbance at 450 nm in each measurement was proportional to the amount of antibodies bound. […] EC50 value (in ng/mL) for binding to human CTLA4 was determined by absorbance at 450 nm against antibody concentration with Prism variable slope of four-parameter dose-response curve, which was calculated using the nonlinear fit (variable slope, four parameters) model built into GraphPad Prism software (version 7.03). The buffers tested included His buffer (His), Tris buffer (Tris), Glutamine buffer (Glu) and no buffer.

Assay [3] deals with T2, human CTLA4 expressed on the cell surface of CHO cells (human, UniProt P16410 36-223).
T2 construct: whole, on cells; also called CHO-huCTLA4; huCTLA4
T2 sequence (looked up): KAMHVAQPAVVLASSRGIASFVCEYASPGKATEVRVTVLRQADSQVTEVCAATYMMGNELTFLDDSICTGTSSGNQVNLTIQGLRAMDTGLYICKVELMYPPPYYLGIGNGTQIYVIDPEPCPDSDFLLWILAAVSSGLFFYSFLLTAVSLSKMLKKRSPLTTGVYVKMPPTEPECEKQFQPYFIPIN
In words: FACS, cells expressing human CTLA4, assay pH 7.4, MFI; lot 6972 in His buffer, T0; unit from the axis Log[ng/mL]. The method, then: (§2) The amount of bound antibodies was quantified using anti-human IgG antibody conjugated to fluorophores. The MFI in each reaction was proportional to the amount of antibodies bound. The EC₅₀ value (in ng/mL) for binding to human CTLA4 on cells was determined by MFI of the singlets population against antibody concentration with a Prism variable slope of four-parameter dose-response curve, which was calculated using the nonlinear fit (variable slope, four parameters) model built into GraphPad Prism software (version 7.03).
On the technique in general: A flow cytometer gives signals particle by particle.

Assay [4] concerns the target T2, human CTLA4 expressed on the cell …. In words: FACS, cells expressing human CTLA4, assay pH 6.0, MFI; lot 6972 in His buffer, T2W; unit from the axis Log[ng/mL]. The method, then:
as §2

For assay [5] the target is unchanged. In words: FACS, cells expressing human CTLA4, assay pH 7.4, MFI; lot 6972 in Tris buffer, T0; unit from the axis Log[ng/mL]. Here is the method: as §2
The target is the same in assay [6]. In words: FACS, cells expressing human CTLA4, assay pH 6.0, MFI; lot 6972 in Tris buffer, T2W; unit from the axis Log[ng/mL]. Here is the method: as §2
For assay [7] the target is unchanged. Briefly: FACS, CHO cells expressing human CTLA4 (CHO-huCTLA-4), pH 7.4, MFI; no unit in the table, unit from the axis Log Antibodies [ng/ml]. Here is the method: (§3) The amount of antibodies bound on the cells was quantified using anti-human IgG antibody conjugated to fluorophores. EC₅₀ values at pH 6.0 and 7.4 for binding to cells were calculated using the nonlinear fit (variable slope, four parameters) model built into GraphPad Prism software (version 7.03). The expression levels of human CTLA4 or cynomolgus CTLA4 on the surface of the CHO cells were determined using a BD QuantiBRITE™ PE kit.
At least two independent duplicate FACS experiments were performed for each antibody using each of the cell lines. The binding activities at different concentrations of the antibodies are plotted in these figures.

For assay [8] the target is unchanged. Briefly: FACS, cells expressing human CTLA4, assay pH 6.0, MFI; lot 6972 control without test buffer; same column repeated in FIG. 10B and FIG. 10C; unit from the axis Log[ng/mL]. The method, then:
as §2

The target is the same in assay [9]. Briefly: FACS, cells expressing human CTLA4, assay pH 6.0, MFI; lot 6978 in Glu buffer, T2W; unit from the axis Log[ng/mL]. Here is the method: as §2
Assay [10] has the same target. Briefly: FACS, cells expressing human CTLA4, assay pH 7.4, MFI; lot 6978 in Tris buffer, T2W; unit from the axis Log[ng/mL]. The method, then:
as §2

For assay [11], the target named is T1, recombinant human CTLA4 extracellular …. In words: ELISA, wells coated with human CTLA4, assay pH 6.0; lot 6978 without test buffer; same column repeated in FIG. 9E and FIG. 9F; unit from the axis Log[ng/mL]. Here is the method:
as §1

Assay [12] addresses T2, human CTLA4 expressed on the cell …. Briefly: FACS saturation, CHO-huCTLA-4, pH 7.4, MFI, titration up to about log 6.5, curve still rising at the end; no unit in the table, unit from the axis Log Antibodies [ng/ml]. Here is the method:
as §3
Finally, saturations of the antibodies on the CHO cells expressing human or cynomolgus CTLA4 at pH 7.4 were also measured by FACS (FIGS. 8A-8B).

Assay [13] concerns the target T1, recombinant human CTLA4 extracellular …. In words: ELISA, wells coated with human CTLA4, assay pH 7.4; lot 6978 in Tris buffer, T0; curve still rising at log 3 (OD450 at most about 0.3), no plateau; unit from the axis Log[ng/mL]. The method, then: as §1

B1: BA-087-05-19 (antibody, V domains shown)
VH: EVQLVESGGGLVQPGGSLRLSCAASGFTFSHYTMHWVRQAPGKGLEWVSFISYDGNNKYYADSVKGRFTISRDNSKNTLYLQMNSLRAEDTAVYYCARTGWLGPFDYWGQGTLVTVSS
VL: AIQLTQSPSSLSASVGDRVTITCRASQYVGSSYLAWYLQKPGQSPQLLIYGAFSRATGIPARFSGSGSGTEFTLTISSLQSEDFAVYYCQQDGSSPWTFGQGTKVEIK
notes: Detected with anti-human IgG and a molecular weight of 146 kDa was used in SPR, so it was tested as a whole IgG; also called BA-087-05-019; BA-087-05-19 (# 6972)
For B1, the EC50 (as a rule, the concentration at which the effect is half-maximal) in assay [1] turned out to be 0.0502 mg/L; in [2], 0.0544 mg/L; in assay [3], 0.433 mg/L; in assay [4], 0.295 mg/L; in [5], 0.681 mg/L; in [6] it was 0.352 mg/L. The EC50 was 0.438 mg/L in assay [7] and 0.223 mg/L in assay [8].

B2: BA-087-08-32 (antibody, V domains shown)
VH: EVQLVQSGAEVKKPGATVKISCKVSGFTFSHYTMHWIRQSPSRGLEWLGFISYDGNYKYYADSVKGRFTISRDNAKNSLYLQMNSLRAEDTAVYYCARTGWLGPFDYWGQGTLVTVSS
VL: EIVMTQSPATLSVSPGERATLSCRASQSVGSSYLAWYQQKPGKAPKLLIYGAFSRATGVPSRFSGSGSGTDFTLTISSLQPEDFATYYCQQDGSSPWTFGQGTKVEIK
notes: Detected with anti-human IgG and a molecular weight of 146 kDa was used in SPR, so it was tested as a whole IgG; also called BA-087-08-032; BA-087-08-32 (# 6978)
As for B2, the EC50 in assay [9] turned out to be 0.176 mg/L; in assay [10], 1.54 mg/L; in assay [11], 0.0222 mg/L; in assay [12] it was 69.6 mg/L; in assay [13] it was 1.14 mg/L.

Values taken from patent publication US20210403565A1 (BIOATLA, published 2021).
